Patent US20210072250A1 (Genentech, published 2021)

Assays:
[1] = biological target: T1, Flag-tagged human K50A eIF5A (human, UniProt P63241 1-154); experiment: Western blot of lysates of 293 cells transfected with DHS-DOHH and flag-eIF5A WT or K50A
T1 construct: also called K50A variant; K50A mutant eIF5A

endogenous eIF5A [2] = biological target: T2, endogenous eIF5A (human, UniProt P63241 2-154); experiment: as above
T2 construct: also called endogenous eIF5A protein of 293T cells

[3] = biological target: T3, Flag-tagged human wild-type eIF5A (human, UniProt P63241 1-154); experiment: as above
T3 construct: also called transfected wild-type eIF5A; WT eIF5A

P6-Hpu [4] = biological target: T4, P6-Hpu; experiment: ELISA, unpurified hybridoma supernatant on peptide
T4 construct: Synthetic peptide

P6 = experiment: ELISA, unpurified hybridoma supernatant on peptide
P6-Hpu [5] = biological target: T4, P6-Hpu; experiment: SPR, ratio of KD values
P6-Hpu [6] = biological target: T4, P6-Hpu; experiment: SPR, Biacore T200, peptide captured, Fab flowed
endogenous eIF5A [7] = biological target: T2, endogenous eIF5A; experiment: immunoprecipitation from 293T cell lysate (diluted 1, 2, 4, 8-fold) with antibody on protein A beads, SDS-PAGE, Coomassie blue

T2 sequence (P63241 2-154 limits assumed): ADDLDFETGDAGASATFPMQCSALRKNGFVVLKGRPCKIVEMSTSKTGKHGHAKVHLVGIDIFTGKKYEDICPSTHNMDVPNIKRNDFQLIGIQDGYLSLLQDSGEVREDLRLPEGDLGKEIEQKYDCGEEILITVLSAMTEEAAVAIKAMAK
T3 sequence (P63241 whole entry): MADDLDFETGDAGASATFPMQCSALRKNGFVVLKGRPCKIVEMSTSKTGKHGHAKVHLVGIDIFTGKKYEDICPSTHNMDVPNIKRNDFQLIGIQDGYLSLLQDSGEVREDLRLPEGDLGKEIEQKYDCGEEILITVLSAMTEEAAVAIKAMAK
T1 sequence (P63241 whole entry K50A): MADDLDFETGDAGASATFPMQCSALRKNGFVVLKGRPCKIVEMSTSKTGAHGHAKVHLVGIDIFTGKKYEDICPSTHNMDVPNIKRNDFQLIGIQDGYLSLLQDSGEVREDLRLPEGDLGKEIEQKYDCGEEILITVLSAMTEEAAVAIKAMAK

B1: mAbHpu91 (antibody, V domains shown)
VH: QSVEESGGRLVTPGTPLTLTCTVSAFSLSTYTINWVRQAPGKGLEWIGDIWSDGNTYYANWAKGRFTISKTSTTVDLKITSPTTEDTATYFCARDSWDTSIYYGLDLWGQGTLVTVSS
VL: AIKMTQTPSSVSAAVGGTVTINCQASEDIKRYLAWYQQKPGQPPKLLIYAASKLASGVSSRFTGSGSGTEYTLTISGVQCDDAATYYCQQGYTSTNVNNAFGGGTEVVVK
notes: also called antibody Hpu91
B1: no binding [1]; binds (endogenous eIF5A [2]); binds [3]. B1: binds (P6-Hpu [4]); no binding (P6).

B2: FabHpu98.61 (Fab, V domains shown)
VH: QSVEESGGRLVTPGTPLTLTCTVSACSLYHCTMNWVRQAPGKGLEWIGDIYTDGNTYYANWAKGRFTISKTSTTVDLKITSPTTEDTATYFCARDSWDASSYYGLDLWGQGTLVTVSS
VL: AIKMTQTPSSVSAAVGGTVTINCQASEDIKRYLAWYQQKPGQPPKLLIYAASKLASGVSSRFKGSGSGTEYTLTISGVQCDDAATYYCQQGYTSSNVNNAFGGGTEVVVKG
In the case of B2, the “Fold improvement in KD over parent FabHpu98” value (P6-Hpu [5]) is reported as over 4.4 fold and the Kd (P6-Hpu [6]) is reported as 229 nM.

B3: mAbHpu24 (antibody, V domains shown)
VH: QEQLKESGGRLVAPGTPLTLTCTVSGFDISDYAMIWVRQAPGKGLEWIGIIYGGSNKLAYAKWAKGRFTISRTSTTVDLKITSPTTEDTATYFCARGYGSMDGYDRLNLWGQGTLVTVSS
VL: AAVLTQTPSPVSAAVGGTVTISCQSSETVYRGDWLSWFQKKPGQPPKLLIYDASYLASGVSSRFSGSGSGTHFTLTISGVQCDDAATYYCLGGYYDDADDTFGGGTEVVVK
notes: also called antibody Hpu24
B3: no binding (P6).

B4: FabHpu24 (Fab, V domains shown)
VH: QEQLKESGGRLVAPGTPLTLTCTVSGFDISDYAMIWVRQAPGKGLEWIGIIYGGSNKLAYAKWAKGRFTISRTSTTVDLKITSPTTEDTATYFCARGYGSMDGYDRLNLWGQGTLVTVSS
VL: AAVLTQTPSPVSAAVGGTVTISCQSSETVYRGDWLSWFQKKPGQPPKLLIYDASYLASGVSSRFSGSGSGTHFTLTISGVQCDDAATYYCLGGYYDDADDTFGGGTEVVVKG
With B4 the Kd (P6-Hpu [6]) was 176 nM.

B5: FabHpu24.B (Fab, V domains shown)
VH: QEQLKESGGRLVAPGTPLTLTCTVSGFDISDYAMIWVRQAPGKGLEWIGIIYGVINDLAYAKWAKGRFTISRTSTTVDLKITSPTTEDTATYFCARGYGSMDGYDRLNLWGQGTLVTVSS
VL: AAVLTQTPSPVSAAVGGTVTISCRSRQRVYLGDWLSWFQKKPGQPPKLLIYDASFRGDGVSSRFSGSGSGTHFTLTISGVQCDDAATYYCLGGYYDDADDTFGGGTEVVVKG
For B5, the “Fold improvement in KD over parent FabHpu24” value (P6-Hpu [5]) was 2.9 fold and the Kd (P6-Hpu [6]) was 61 nM.

B6: mAbHpu24.B (antibody, V domains shown)
VH: QEQLKESGGRLVAPGTPLTLTCTVSGFDISDYAMIWVRQAPGKGLEWIGIIYGVINDLAYAKWAKGRFTISRTSTTVDLKITSPTTEDTATYFCARGYGSMDGYDRLNLWGQGTLVTVSS
VL: AAVLTQTPSPVSAAVGGTVTISCRSRQRVYLGDWLSWFQKKPGQPPKLLIYDASFRGDGVSSRFSGSGSGTHFTLTISGVQCDDAATYYCLGGYYDDADDTFGGGTEVVVK
notes: also called antibody Hpu24.B
B6: binds (endogenous eIF5A [7]).
